Patent US20110039770A1, “INHIBITORS OF PROTEIN KINASE C ISOFORMS AND USES THEREOF” (PHARMAGAP INC., priority 2005, published 2011)
Where a SMILES comes first, the peptide text is derived from it. [ ]: non-standard residue; d: D form.

Assays:
PKC-δ [1] = target: T1, PKC-δ (Homo sapiens, UniProt Q05655); assay: ELISA-based competitive binding assay with purified PKC isoform; parameters: key to Affinity for PKC isoform δ: —: no detectable affinity; Low to very low affinity at 10X or 20X or both PRE concentrations in at least one cell line in the cell extract assay; Low affinity in purified isoform assay.; Moderate affinity at 10X or 20X or both PRE concentrations in at least one cell line in the cell extract assay.; High affinity at 10X or 20X or both PRE concentrations in at least one cell line in the cell extract assay; High affinity in purified isoform assay; conditions: for Affinity for PKC isoform δ: Purified isoform
Procedure: Peptides PRE 1, 2, 3, 4, 5, 6, 7, 8, 9, 10, 11, 12 and 13 (see Table 3) were tested for their ability to interfere with binding of PKC isoform-specific antibodies to their target PKC isoforms using a competitive binding assay and purified PKC isoforms.
Procedure: Competitive binding was assessed using a 96 well plate ELISA-based assay as described below.
Greiner 96 well ELISA plates were coated with the appropriate PKC isoform diluted in PBSN (PBS with Calcium/Magnesium+0.05% Sodium azide w/w). 50 μL/well at 250 ng/mL was used. Control wells contained PBSN only. Plates were incubated overnight at 4° C.
The plates were washed 3 times with 200 μL of dH2O per well, then 100 μL of blocking solution was added per well and the plate incubated for 1 h at 37° C. The washing steps with dH2O were repeated and 50 μL of the appropriate PRE solution (PRE stock solution [20 mM in DMSO] diluted in PBSN) was added and the plate incubated for 1 h at room temperature.
After incubation, 5 μL of 1.1:400 anti-PKC (isoform specific antibody) was added per well (to provide a final concentration of 1:4000). For PKC-epsilon, 1.1:800 dilution was used and for PKC-zeta a 1.1:100 dilution was used due to high and low binding affinity, respectively. The plates were then incubated 1 h at room temperature, followed by washing with dH2O as described above.
50 μL of 1:1000 dilution of Alkaline Phosphatase (AP) conjugated antibody (anti-rabbit for all except zeta, which was anti-goat) was then added and the plate incubated for 1 h at room temperature. Washing with dH2O was then repeated. Finally, 100 μL of pNPP solution in pNPP buffer (2 mM MgCl2, 100 mM Sodium bicarbonate in water, pH 9.8) was added to all wells and incubated for 8 minutes for α, βI, βII ε, and ζ, or for 15-20 mins for δ (until sufficient coloration is observed). The reaction was stopped by addition of Stop solution (2N NaOH) and the absorbance at 405 nm was read on a Galaxy Plate reader.
Controls were PKC without PRE; blank controls, and controls containing the final concentrations of DMSO used for solubilizing the PREs. The non-specific binding capacity related to DMSO was also measured.
The antibodies used were as follows: anti-PKC α (Cat. No. SC-208); anti-PKC βI (Cat. No. SC-209); anti-PKC βII (Cat. No. SC-210); anti-PKC δ (Cat. No. SC-213); anti-PKC ε (Cat. No. SC-214); anti-PKC ζ (Cat. No. SC-216-G) (all from Santa Cruz Biotechnology, Inc.). The AP-conjugated antibodies were obtained from Jackson Immuno Research Laboratories (West Grove, Pa.).
Calculations: The OD values measured at 405 nm represent the free PKC coated per well.
OD405 PKC alone−Blank OD405 of each sample=OD405 coated isoform
(OD405 of sample X/OD405 coated isoform)×100=% n that represents the percentage of X binding compared to control.
100-% n measures the relative binding capacity of X towards the tested isoform.
The apparent binding capacity of the DMSO samples was then subtracted from X binding capacity.
All measurements were made in triplicate and the values in the table represent the averaged calculated binding capacity values after subtraction of the DMSO apparent binding capacity (averaged from 12 values, respectively 10.80, 11.20 and 16.40 corresponding to the concentrations of DMSO used to dilute the […] at 200, 100 and 50 μM respectively). The results allow for quantitative comparison of the binding capacity of each PRE towards an individual isoform within each table, but not among isoforms due to differences in sensitivity of the specific antibodies toward the secondary antibody. This applies particularly to PKC-delta. As noted above, the colour development duration was increased 2-3 times and, as a result, the OD405 measurements may be overestimated for this isoform.

PKC-δ [2] = target: T1, PKC-δ; assay: Competitive binding assay using cell extracts (Western blot); parameters: cytoplasmic extracts from different cell lines expressing appropriate PKC isoforms; endogenous in cells; host or cells: H661, MDAMB231, LS180, T24; key: —: no detectable affinity; Low to very low affinity at 10X or 20X or both PRE concentrations in at least one cell line in the cell extract assay; Low affinity in purified isoform assay.; Moderate affinity at 10X or 20X or both PRE concentrations in at least one cell line in the cell extract assay.; High affinity at 10X or 20X or both PRE concentrations in at least one cell line in the cell extract assay; High affinity in purified isoform assay; conditions: Cell extract; PRE 10X or 20X antibody concentration
Procedure: Binding efficiency and specificity of the peptides PRE 2, 3, 4, 5, 6, 7, 8, 9, 10, 11, 12 and 13 (see Table 4) was also tested using cytoplasmic extracts from different cell lines expressing appropriate PKC isoforms as described for Example 1. Briefly, the protein cytoplasmic extracts were separated by electrophoresis and transferred onto nitrocellulose membranes by standard Western blotting procedures. The bands on the Western blots were detected with matching primary antibodies and alkaline phosphatase conjugated secondary antibody. The bands were then scanned and the relative density measurements obtained.
This procedure to assess the binding characteristics of the PREs is based on competition binding of the PRE with the primary anti-isoform PKC specific antibodies. The lower the measured band density, the greater the binding of the PRE to the PKC isoform. The PREs were added at 10 and 20 times (10×, 20×) the primary antibody concentration, according to classical competition between antigenic peptide and primary antibody. The following cell lines (obtained from the ATCC) were used: H661—NCI human lung carcinoma NSCLC; MDAMB231—human highly invasive breast cancer cell line from pleural effusion; LS180—human colon adenocarcinoma; LnCAP—human prostate adenocarcinoma; CCD16Lu—human lung fibroblasts; Du145—human prostate carcinoma brain metastasis, and T24—human bladder carcinoma.
In these cases, the 20× band density figures relative to control and 10× values were reliable.

T1 sequence (Q05655 whole entry, canonical isoform): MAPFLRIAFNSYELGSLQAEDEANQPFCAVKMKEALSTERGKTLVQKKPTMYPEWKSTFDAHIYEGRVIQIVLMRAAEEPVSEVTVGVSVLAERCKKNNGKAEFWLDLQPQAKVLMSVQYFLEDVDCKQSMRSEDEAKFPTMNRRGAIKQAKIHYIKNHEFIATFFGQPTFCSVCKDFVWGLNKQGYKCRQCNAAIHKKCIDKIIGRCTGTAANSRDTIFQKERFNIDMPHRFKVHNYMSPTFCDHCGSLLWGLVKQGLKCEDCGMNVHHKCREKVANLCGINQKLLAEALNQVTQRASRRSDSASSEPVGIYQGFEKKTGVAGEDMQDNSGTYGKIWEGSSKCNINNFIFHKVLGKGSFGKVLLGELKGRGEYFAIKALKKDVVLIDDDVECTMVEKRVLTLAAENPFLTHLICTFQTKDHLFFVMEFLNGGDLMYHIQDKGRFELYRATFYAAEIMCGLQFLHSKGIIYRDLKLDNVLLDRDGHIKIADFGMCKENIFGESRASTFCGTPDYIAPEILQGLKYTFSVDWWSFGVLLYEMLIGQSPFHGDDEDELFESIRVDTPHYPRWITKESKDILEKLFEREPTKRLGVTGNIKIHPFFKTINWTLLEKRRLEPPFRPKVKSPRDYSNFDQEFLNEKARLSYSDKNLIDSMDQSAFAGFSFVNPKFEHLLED

| Molecule | Affinity for PKC isoform δ (PKC-δ [1]) | Affinity for PKC isoform δ (PKC-δ [2]) | also measured |
| --- | --- | --- | --- |
| CC[C@H](C)[C@H](NC(=O)[C@H](CO)NC(=O)[C@@H](NC(=O)CNC(=O)[C@@H](NC(=O)[C@H](CC(C)C)NC(=O)[C@H](CC(N)=O)NC(=O)[C@H](CCC(N)=O)NC(=O)[C@H](C)NC(=O)[C@H](CC(=O)O)NC(=O)CNC(=O)CNC(=O)[C@H](CCCCN)NC(=O)[C@@H](NC(=O)[C@H](CCC(=O)O)NC(=O)[C@H](CCC(N)=O)NC(=O)[C@@H](NC(=O)CNC(=O)[C@H](CCCCN)NC(=O)[C@H](C)NC(C)=O)[C@@H](C)CC)C(C)C)[C@@H](C)CC)[C@@H](C)CC)C(N)=O [PRE 3] (Ac-AKGIQEVKGGDAQNLIGISI-NH2) | H | H |  |
| CC[C@H](C)[C@H](NC(=O)[C@H](CO)NC(=O)[C@@H](NC(=O)CNC(=O)[C@@H](NC(=O)[C@H](CC(C)C)NC(=O)[C@H](CC(N)=O)NC(=O)[C@H](CCC(N)=O)NC(=O)[C@H](C)NC(=O)[C@H](CC(=O)O)NC(=O)[C@H](CCCCN)NC(C)=O)[C@@H](C)CC)[C@@H](C)CC)C(N)=O [PRE 4, Ac-KDAQNLIGISI-NH2] (Ac-KDAQNLIGISI-NH2) | H | — |  |
| CC[C@H](C)[C@H](NC(=O)[C@H](CO)NC(=O)[C@@H](NC(=O)CNC(=O)[C@@H](NC(=O)[C@H](CC(C)C)NC(=O)[C@H](CC(N)=O)NC(=O)[C@H](CCC(N)=O)NC(=O)[C@H](C)NC(=O)[C@H](CC(=O)O)NC(=O)[C@H](CCCCN)NC(=O)CNC(=O)CNC(=O)[C@H](CCCCN)NC(=O)[C@@H](NC(=O)[C@H](CCC(=O)O)NC(=O)[C@H](CCC(N)=O)NC(=O)[C@@H](NC(=O)CNC(=O)[C@H](CCCCN)NC(=O)[C@H](C)NC(C)=O)[C@@H](C)CC)C(C)C)[C@@H](C)CC)[C@@H](C)CC)C(N)=O [PRE 5] (Ac-AKGIQEVKGGKDAQNLIGISI-NH2) | L | — | inhibition at 50 µM (PKC-δ [1]; PRE 50 μM, purified PKC-δ (may be overestimated), read-out: calculated binding capacity (100-% n, DMSO apparent binding subtracted)): 0.2%; inhibition at 100 µM (PKC-δ [1]; PRE 100 μM, purified PKC-δ (may be overestimated), read-out: calculated binding capacity (100-% n, DMSO apparent binding subtracted)): 0% |
| Ac-KDANQLIGISI-NH2 [PRE 6] | L | M/H |  |
| RRKKGGKDFVVKR [PRE 1] | H | — |  |

Further lines, with some results ahead:

| Affinity for PKC isoform δ (PKC-δ [1]) | Affinity for PKC isoform δ (PKC-δ [2]) | Molecule | also measured |
| --- | --- | --- | --- |
| — | H | Ac-ISIGILNQADK-NH2 [PRE 10] |  |
| — | L | Ac-ISIGILQNADK-NH2 (not fully specified; printed as Ac-ISIGILQNADK-NH2) [PRE 7] |  |
| L | — | Ac-KDAQNLI-NH2 [PRE 12] |  |
| L | — | Ac-RDAQNLI-NH2 [PRE 13] |  |
| H | — | Ac-RDAQNLIGISI-NH2 [PRE 11] |  |
| L | H | Ac-isigilqnadk-NH2 (Ac-[dI][dS][dI]G[dI][dL][dQ][dN][dA][dD][dK]-NH2; SMILES CC[C@@H](C)[C@@H](NC(C)=O)C(=O)N[C@H](CO)C(=O)N[C@@H](C(=O)NCC(=O)N[C@@H](C(=O)N[C@H](CC(C)C)C(=O)N[C@H](CCC(N)=O)C(=O)N[C@H](CC(N)=O)C(=O)N[C@H](C)C(=O)N[C@H](CC(=O)O)C(=O)N[C@H](CCCCN)C(N)=O)[C@H](C)CC)[C@H](C)CC) [PRE 9] | calculated binding capacity (100-% n, DMSO apparent binding subtracted) (PKC-δ [1]; PRE 50 μM, purified PKC-δ (may be overestimated)): 16.23%; calculated binding capacity (100-% n, DMSO apparent binding subtracted) (PKC-δ [1]; PRE 100 μM, purified PKC-δ (may be overestimated)): 19.27%; calculated binding capacity (100-% n, DMSO apparent binding subtracted) (PKC-δ [1]; PRE 200 μM, purified PKC-δ (may be overestimated)): 9.95% |
| — | L | ILEDKGGDAQNLIGISI [PRE 8] |  |
